Experimental data reported in PMC5567082.

Target: polyhistidine-tagged canine PD-L1 protein (cPD-L1-His) (dog)
Test: SPR; Biacore X100, CM5 chip, His Capture Kit: cPD-L1-His captured by immobilised anti-histidine antibody (approximately 400 RU); cPD-1-Ig or cCD80-Ig flowed over; HBS-EP+ running and dilution buffer; two state reaction model

“recombinant canine CD80 protein fused to rabbit IgG Fc (cCD80-Ig) (Fc fusion)” was tested, and the Kd was 24.3 nM.

“recombinant canine PD-1 protein (cPD-1-Ig) (Fc fusion)” gave a Kd of 25.4 nM.
